Experimental data from the DeepSol protein solubility set.

Assay: soluble on expression in E. coli; label from the status in PepcDB or PDB records

Row | Sequence | soluble on expression in E. coli
1 | MDTQQLINAITPEAYQRLLYAVETGKWPEGTPLSQQQRDSCMQAVMLYQSKHNTQADHMSVGVGGEVVFKSKAELKKRFSEGEEDILRVNPNQEA | not soluble
2 | MAHHHHHHMEYQGSPQQEEGDAALAKRLHEELNRSEASGHQEPSDQTGGRRQVECPMCSSVSVVVGAADGVQQVCERCKATTHGGFASGEDNENYSMQKLLLCNICQSYNRVPKGTFDAILCGACGNQLKAGGSVTENLSPEDTRVRTQEIRVRCPKCSSINTVEANTDALSVRFECGSCRYANEVFF | soluble
3 | MGATMKPSNKESVQDTVARLRENRNQQQSKVGKNATHSSKEQTPLDTPTRSKASKNAKAVSAAERKTEANKIIKHLLLGELTQGQALKSLRINILGLKQDVFARLVDVSRKTLSDIENDRGSYNTEILNKVFKPFSLKIGLLPSSPDALKSLLMDGEDG | soluble
4 | KDWSLDVTANISALRNKVKSLGEGVQPIKAEVMMSGSFNDRPTITKPGLPIGTFWGYVVEGFDNDGNFIFQDNNGSVNGVLTGKPDGKIDENDKTDIGNPHPDFTYGLNINVGYKNWDLTAFFQGTQGNDIFALMKYDWYFGGANSATLKDAFYNSWTPQNPNAEAPKLNSKNSSGINSLPSTFYVEDGSYFRCKNLQIGYSFNKKLLQKFHIESFRIYAGVQNLFTITKYPLYDPEVSSNVLFDRGVDGFWQAQESPHEATMNSRVYNLGVNLTF | not soluble
5 | MKMKKITAMSMAALMAATMIPSVPVMADGGGKVYYLNFKPEQDEAWQNLAKAYTEETGTDVTVVTAASGQYETTLQSEMAKSDAPTLFQVNGPVGLKNWKDYCYDLKDADITKELTSDAYELKDGDAVAGIAYVIESYGLITNKTLLEKAGYTLDDIKSFDDLKKVADDIQARKDEIGVKGAFTSAGMDGSSDWRFKTHLANLPIYYEYKADGIDDTEAIKGTYLDQYKNVFDLYITDSTCDGSELSAKTADDSRNEFVNGDAVFYQNGSWEYAELAKTYSDDELAMIPIYFGVDDENEGLATGTENYWCVNKNASEEDVQATLDFMNWCVTSEAGTKSMSEDMGFTIPFKTAVAPTNVFVKQDAEYTEAGLTPVSWNFTTMPSEEWKNGLGTALTAYAAGTGDWDAVVSAFVDGWATEKALSE | not soluble
6 | PREEVARIHASSGTTGKPTVVGYTKNDLKVFAEVVARSLAAAGARPGMMLHNAYGYGLFTGGLGLHGGAEALGMTVVPVSGGMTERQVMLIQDFRPEVISCTPSYAQTLAEEFRKRGVSPEELSLEYAVLGAEPWTEAIRKQVDEGLGVKSTNIYGLSEIIGPGVSNECVEERQGSHI | not soluble
7 | MKTYHLNNDIIVTQEQLDHWNEQLIKLETPQEIIAWSIVTFPHLFQTTAFGLTGLVTIDMLSKLSEKYYMPELLFIDTLHHFPQTLTLKNEIEKKYYQPKNQTIHVYKPDGCESEADFASKYGDFLWEKDDDKYDYLAKVEPAHRAYKELHISAVFTGRRKSQGSARSQLSIIEIDELNGILKINPLINWTFEQVKQYIDANNVPYNELLDLGYRSIGDYHSTQPVKEGEDERAGRWKGKAKTECGIHEASRFAQFLKQDA | soluble
8 | SAENREPRCAIEAELDPVEYTLRKRLPHRLPRRPNDIYVNMKTDFKAQLARCQKLLDGGTRGQNACTEIYIHGLGLAINRAINIALQLQAGSFGSLQVAANTSTVELVDELEPETDSREPLTRVRNNSAIHIRVFRVTPK | soluble
9 | MARPANTLQSLAELNGKAPSRRQLNIQHWNTAEGARVLFVEARELPMFDLRVTFAAGSSQDGGTPGLAALTNAMLNEGVAGKDVTAIAEGFEGLGADFGNGSYRDMAVASLRSLSAKDKREPALKLFTEVAGKPTFPEDALKRIKNQMLAGFEYEKQNPGKIAGKALFGKLYGDHPYAHPSDGTAESITGISLAQLRAFHAKAYTGGNAVIALVGDLSRAEAEAIAAQVSAGLPKGPALAAPAQPADAKAGLTHIDFPSKQTHLMLAELGIDRQDPDWPALSMGNQILGGGAFGTRLMSEVREKRGLTYGVYSVFSPMQVRGPFMINLQTRAELSEGTLKLVQGILADYLKTGPTQQELDDAKRELAGSFPLSNASNASIVGQLGAIGFYNLPLTWLEDFMQQSQALTVEQVKAAMNKHLSADKLVIVTVGPKVPQKPLEHHHHHH | not soluble
10 | MPLALAQLQDIGDRITDRLRPWSRSAEFWVRAADIYTSYKVAPPDPVPLLHWLVCQLRAGFVKDEEEREAMWEQQHELGAQKMYSLCSELGGLFLKEAAQILGKPDLAPMAWVKRLVTLCDNAPATPIDVVRDVVEKQFGKSFDDIFECFDVEPVGSASIAQVHRARLKLSKTDVAVKVQHPGAEKLMMVDIRNMQAFALFLQKYDINFDLYSATKEMEKQICYEFDFVREAKAMERIREFLRVTNKKKPPVIVPRVIPEMVSREVLVMEFIEGTPIMNLGNEMAKRGIDPGGKIATMAKQKILTDLTLAYGQMILKDGFFHADPHPGNILICKNTEARLLFLFLFLAMVALLDYGQVKAMPEDLRLAYANLVIAMADDDFLRTKESFREIGIETWSIADNELEELFQLSLRMFDTRLPPGVTAMSPFAEDSSLNKVGVQNCLLNGVSILFFYLKSFPEELFSVLRTIQLLRGLTVGMGLRFSCAQQWKPIAEEALLKSGRLKDY | soluble
11 | GPGSMLDEVLHSRVVQALLGALVMRELYSDAAVLLASVPPVLDTGGDTSSKDFGGIPSPLLVATRQDTLASLASFRQCVAARRWVEAVQIIDGSATAQSWAQATPLCAMVAFVRLEMDDPKAARALLLPYLASLPEPPSWEALSTAPVEHAQLWDNFTSHYVFSTTLLAKASFMSGSAYLNISAALLQRALRLSPSYAPARLFAEFVLSFEAQQQHVDAAVSASDYPKVLSVTAEMLRMPEVTRLVRAELYLVRTQAQWMRGQPLEVVHEASRCEQCDPQCALAFRLRADAFAMMSRETEAAADLAVAKHLNARVGALFDELQVQRSRRNAAQVEAKAKRNSVPAFKSFPSASAPLRSSATESFCGSTRRSGAQARMSTDTELSPSLRTHYDVLGVSSNASEAEIRRRYRRLTLQLHPDRLVGAAESDRRAALEAFQLLGNAYSVLSDTQLRATYDAGLPGLH | not soluble
12 | MGHVLIEMMGIKKGDFVLDVGCGTGRQALNVAGIIGPAGKLTGIDPSSYRIELARKKFEGDSSGNVRFLVRQAENLQDIPDNSINHAYFCSSFHWVDDKKTALNEIFRVLRPGGKVGMTTLDRNSPNTMKALIDPILAKFGIERRHEWHRGMKKVTAPELHDLLSGAGFTSISIEPRAVPRKYNSPEEFLQHPEEKDSSRGILRDISNETLEKLRQEITEEFRKAQTPEDIGFGNITLFAIATKAQEGLEHHHHHH | soluble
13 | MGSDKIHHHHHHMPLPIRDLYTFFVVARAGAMQAAAHELGVTPGAISQRIRSIEDRYGKRLFVRSRDGVSLTASGKALWKEVKSAFAQIETSHNRHIGKDGKTILRISAAPTFAHSFLVSNLASFNEDHPGIRFNIETEDRLADLRSEPIDLAIRHGLGDYAGLRSEWLCAPELIVVGSPALLESQHPVKEPEDCLRFTLLPDETGLDWALWFEAHRVNAVAPSYGTAFKDGFLTVKAASRGQGLALINDIYVREELADGRLVQLLPGSWPTKFAYYAVALPETFDRPAVKAFVKWLCAACAVEQMHQK | not soluble
14 | MAYWLMKSEPDEFSISDLQRLGKARWDGVRNYQARNFLRTMAEGDEFFFYHSSCPEPGIAGIGKIVKTAYPDPTALDPDSHYHDAKATTEKNPWSALDIGFVDIFKNVLGLGYLKQQSQLEQLPLVQKGSRLSVMPVTAEQWAAILALRLEHHHHHH | soluble
15 | MQRKTFADAECPIARSLERVGEWWSILIMRDALQGLRRFDEFSRSLDIAPNMLTRRLNALVEAGLLERQPYSQRPLRYQYVPTAKGEDFRVVLMAFVAWGNRHYAEEGQSVQLVERTSGRPVRSFMAALADGRTVPLEQCTVQAGPAASEEMRQRLAAMPERSELPAR | not soluble
16 | MKEESEESSMDHHSYTTEEVAKRLKVSKLTVYDLIKKGELPSYRVGRQMRIDAADLDQYIKQMKTGKVQVNPVKNDGSSILNTCIISGQELTLDMLAKRIENRLPSSNVLRAYQGSLTSLVKMYQGEGSIVSLHLFDGETGTYNIPYVKRILVGQPCLMINLLSRNVGFYVQKGNPKKIKTWADISGSTIKFVNREKGSGIRVLVDEQLRILKLNKADISGYEWEESNHLGVATQVANGKADVGVGSEKFSQIVNVDFIPIMKEQYDLVILKNKENEELIEVVKDILQSEEFHNELNAIGGYDITKTGQIVYEIK | not soluble
17 | MEDQDLLEIGILNSGHRQRILQAIQLLPKMRPIGHDGYHPTSVAEWLDSIELGDYTKAFLINGYTSMDLLKKIWEVELINVLKINLIGHRKRILASLGDRLHDDPPQKPPRSITLREPSGNHTPPQLSPSLSQSTYTTGGSLDVPHIIMQGDARRRRNENYFDDIPRSKLERQMAQSSVCEIWTNQNAGFPFSAIHQVHNTGDWGEPSITLRPPNEATASTPVQYWQHHPEKLIFQSCDYKAFYLGSMLIKELRGTESTQDACAKMRANCQKSTEQMKKVPTIILSVSYKGVKFIDATNKNIIAEHEIRNISCAAQDPEDLSTFAYITKDLKSNHHYCHVFTAFDVNLAYEIILTLGQAFEVAYQLALQARKGGHSSTLPESFENKPSKPIPKPRVSIRKSVQIDPSEQKTLANLPWIVEPGQEAKRGINTKYETTIF | soluble
18 | GPGSMPLTAAGMRTLMRQMQEVQEHPVDGVQVRPSDSMNEYHFDVDGPEGTPFAAGRFHVVLIFDEQYPEVPPKGFFRTKIFHPNISERGDICVNTLKRDWSPMLGLRHILVVIRCLLIEPNPESALNEEAGRLILEEYAAYERKAAMYTAINAARPNGVPRFTLPEVKAEKASGSVTACASAGAAADSGASATAAAAAASASSMANGGAPSTATRGLTLSEANCHPGSATAAEKAEKSKKKALRRI | soluble
19 | GEVASVPLTNYLDSQYFGKIYLGTPPQEFTVLFDTGSSDFWVPSIYCKSNACKNHQRFDPRKSSTFQNLGKPLSIHYGTGSMQGILGYDTVTVSNIVDIQQTVGLSTQEPGDVFTYAEFDGILGMAYPSLASEYSIPVFDNMMNRHLVAQDLFSVYMDRNGQESMLTLGAIDPSYYTGSLHWVPVTVQQYWQFTVDSVTISGVVVACEGGCQAILDTGTSKLVGPSSDILNIQQAIGATQNQYGEFDIDCDNLSYMPTVVFEINGKMYPLTPSAYTSQDQGFCTSGFQSENHSQKWILGDVFIREYYSVFDRANNLVGLAKAI | soluble
20 | MELNGKAPSRRQLNIQHWNTAEGARVLFVEARELPMFDLRVTFAAGSSQDGGTPGLAALTNAMLNEGVAGKDVTAIAEGFEGLGADFGNGSYRDMAVASLRSLSAKDKREPALKLFTEVAGKPTFPEDALKRIKNQMLAGFEYEKQNPGKIAGKALFGKLYGDHPYAHPSDGTAESITGISLAQLRAFHAKAYTGGNAVIALVGDLSRAEAEAIAAQVSAGLPKGPALAAPAQPALEHHHHHH | soluble
21 | MSWMQNLKNYQHLRDPSEYMSQVYGDPLAYLQETTKFVTEREYYEDFGYGECFNSTESEVQCELITGEEDPKLLPYDKRLAWHFKEFCYKTSAHGIPMIGEAPLEHHHHHH | soluble
22 | MAHHHHHHMKDVDTARVLSELVNALQRVTAQPAWNTVQEPKAITFRLEDLFSTPNSVLASAATEGDSPEHGGNASEMNSPDMAAASFVNSGVGDGLGETATPLAPLREMSDHFSSNKKYAEEGLQDVFTMLQRLIDGTYSTAGCAALACMGQEIDKMITLMRPVALIDMRAAVYMNSLCSNIAAAKESRMQLNAPLVWDFVTNTVQTYITDHPVLYTALVAISNLSYLKDLKLTREDCGVLSRLIYPVYTEVHIVEVWAAMICNLTAHHPETVQVFLELGVVEVLERLVLYFGEEGRTVIRCLQCLSNLSMGFITGHSPALAE | not soluble
